Results published in article PMC2120063 (The Journal of Cell Biology, 1994).

B1: GST-tensin p29(1-263) (domain or fragment)
chain: MDFGSVMNQAATPCSPAVNYELPSPGQSITKQVDTPDATRSPRGGQAHRKASRSMSVTAAMESSCELDLVYITERIIAVSYPSTAEEQSFRSNLREVAHMLKSKHGDNYVLFNLSERRHDISKLHPKVLDFGWPDLHTPALEKICSICKAMDTWLNAAAHNVVVLHNKGNRGRLGVVVAAYMHYSNISASADQALDRFAMKRFYEDKVVPVGQPSQKRYIHYFSGLLSGSIKMNNKPLFLHHVIMHGIPNFESKGGCRPFLKI
B2: full-length epitope-tagged recombinant chick cardiac muscle tensin (natural protein)
chain: MDFGSVMNQAATPCSPAVNYELPSPGQSITKQVDTPDATRSPRGGQAHRKASRSMSVTAAMESSCELDLVYITERIIAVSYPSTAEEQSFRSNLREVAHMLKSKHGDNYVLFNLSERRHDISKLHPKVLDFGWPDLHTPALEKICSICKAMDTWLNAAAHNVVVLHNKGNRGRLGVVVAAYMHYSNISASADQALDRFAMKRFYEDKVVPVGQPSQKRYIHYFSGLLSGSIKMNNKPLFLHHVIMHGIPNFESKGGCRPFLKIYQAMQPVYTSGIYNVQGDSQTGICITIEPGLLLKGDILLKCYHKKFRSPTRDVIFRVQFHTCAVHDLDIVFGKEDLDEAFRDERFPEYGKVEFVFSYGPEKIQGMEHLENGPSVSVDYNTSDPLIRWDSYENFNIQREDSTEGTWAEPALPGKHLEKEVGHTQGPLDGSLYAKVKKKDSLHGSIGAVNAARLPLSAAPNHVEHTLSVSSDSGNSTASTKTDRTDEPGAPGAPTGHAVLSPEEKRELDRLLVGFGLESAPPMHNHAPGPAPARLPAGPGRHVVPAQVHVNGAGTPLLAERETDILDDELPNQDGHSVGSLGTLSSLDGTTTASEAGFHEAPRVGSLSSLPNGPASYNGAEKMLKEGLYEAEPLSNGAYPYSNQNTLMGHHLRDPLAHLRPSASAQEHLAGYPQRQPASTSPAWLQPPVPQPYLYGYDLPSAHRSQSFPAVGTAKYEANLALPQAPARSTSSREAVQRGLNSWQQQGGSRPPSQLHDGGLESHSPSLSSCSPQPSPLQPMPPHSHSMPEFPRAPSRREIEQSIEALDVLMLDLAPSVHKSQSVPSAATRQDKPAAMLSSLSAQPLSGHYAQPTPQVVQPRSFGTSVGTDPLAKAYSPGPLVPAARSTAEPDYTVHEYRETYTPYSYQPVPEPRSYGSAPASILPLSASYSPAGSQQLLVSSPPSPTAPAQSQLPHKGLESYEDLSRSGEEPLNLEGLVAHRVAGVQSREKSPEESTVPARRRTPSDSHYEKSSPEPGSPRSPTVLSPEVVSTIAANPGGRPKEPHLHSYKEAFEEMESASPSSLTSGGVRSPPGLAKTPLSALGLKPHNPADILLHPVGELEGEAGADSEEEPRSYVESVARTATTGRAGNLPAAQPVGLEVPARNGAFGNSFTVPSPVSTSSPIHSVDGASLRSYPSEGSPHGTVTPPHAVAETAYRSPMVSQTPSAHSSYQTSSPSSFQAGTLGSPYASPDYPDGRAGFQPDPQARQQPQVSVVGVHALPGSPRTLHRTVATNTPPSPGFGRRAANPAVASVPGSPGLGRHTVSPHAPPGSPSLARHQMAAVPPGSPMYGYSSPEERRPTLSRQSSASGYQPPSTPSFPVSPAYYPGTSTPHSSSPDSAAYRQGSPTPQPALPEKRRMSAGERSNSLPNYATVNGKASSPLSSGMSSPSSGSAVAFSHTLPDFSKFSMPDISPETRANVKFVQDTSKYWYKPDISREQAIALLKDREPGAFIIRDSHSFRGAYGLAMKVASPPPTVMQQNKKGDITNELVRHFLIETSPRGVKLKGCPNEPNFGCLSALVYQHSIMPLALPCKLVIPDRDPMEEKKDAASTTNSATDLLKQGAACNVLFINSVEMESLTGPQAISKAVAETLVADPTPTATIVHFKVSAQGITLTDNQRKLFFRRHYPLNTVTFCDLDPQERKWTKTDGSGPAKLFGFVARKQGSTTDNVCHLFAELDPDQPAAAIVNFVSRVMLGSGQKR

Assays:
[1] = biological target: T1, rabbit skeletal muscle actin (rabbit, UniProt P68135 1-377); assay: co-sedimentation
[2] = biological target: T1, rabbit skeletal muscle actin; assay: pyrene-actin polymerisation kinetics
[3] = biological target: T1, rabbit skeletal muscle actin; assay: pyrene-actin polymerisation kinetics; remark: listed apart in the source

| Binder | stoichiometry N [1] | Kd [2] [nM] | Kd [3] [nM] | Kd [1] [nM] |
| --- | --- | --- | --- | --- |
| B1 | 2 to 4 actin subunits per tensin fragment | – | – | – |
| B2 | 11 actin subunits per tensin | 10 to 100 | ~20 | 100 |
